Data on 32 molecules can be found in patent US20260242478A1 (published 2026).

The target in assay [1] is T1, 006 PSMA Fab.
T1 construct: In the panning ELISA the PSMA Fab was biotinylated and captured on neutravidin coated plates; also called Anti-PSMA Fab; anti-PSMA Fab
Put plainly: clonal phage ELISA on biotinylated PSMA Fab captured on neutravidin plates, anti-M13 HRP detection.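 Also: crude clonal phage supernatants tested, before phage were added, wells were pretreated with PSMA antigen in blocking buffer or with blocking buffer only.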 For orientation: An ELISA detects its analyte on a solid surface through an enzyme-linked reagent.
Description: (§1) Clonal phage were harvested as crude supernatants and screened via standard ELISAs. […] Prior to the addition of clonal phage. wells were incubated with blocking buffer and PSMA antigen or blocking buffer alone. Without washing or aspirating, clonal phage supernatants were then added to the wells and incubated for a short time. Wells were then washed followed by detection of bound phage using a horse radish conjugated anti-M13 antibody.

Assay [2] addresses T1, 006 PSMA Fab. Put plainly: clonal phage ELISA on captured PSMA Fab pre-incubated with PSMA antigen as competitor, anti-M13 HRP detection.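 Also: crude clonal phage supernatants tested by ELISA, wells first treated with blocking buffer plus PSMA antigen, bound phage read out via HRP-linked anti-M13 antibody.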
Description: as §1
Assay [3] has as its target T2, PSMA Fab (006 PSMA Fab).
T2 construct: also called Anti-PSMA Fab; anti-PSMA Fab
Put plainly: clonal phage ELISA; biotinylated PSMA Fab on neutravidin plate, blocking buffer alone; anti-M13 HRP detection.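 Also: crude clonal phage supernatants added without washing to wells pretreated with blocking buffer with or without PSMA antigen, short incubation, then washed before detecting bound phage.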
Description: as §1

Assay [4] deals with T2, PSMA Fab (006 PSMA Fab). The experiment in a line: clonal phage ELISA; biotinylated PSMA Fab on neutravidin plate pre-incubated with PSMA antigen as competitor; anti-M13 HRP detection.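 Also: crude clonal phage supernatants briefly incubated on wells preloaded with PSMA antigen in blocking buffer, or buffer only as control, bound phage detected with HRP-conjugated anti-M13 antibody.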
Description: as §1
Assay [5] concerns the target T3, 006 PSMA Fab (biotinylated (site not stated)).
T3 construct: Biotinylated PSMA Fab captured on neutravidin coated plates in the clonal phage ELISA; also called Anti-PSMA Fab; anti-PSMA Fab
The experiment in a line: clonal phage ELISA, biotinylated PSMA Fab on neutravidin plate, anti-M13 HRP detection, no PSMA antigen.

Assay [6] concerns the target T3, 006 PSMA Fab. Put plainly: clonal phage ELISA, biotinylated PSMA Fab on neutravidin plate, anti-M13 HRP detection; competitor PSMA antigen.
Description: as §1
For assay [7], the target named is T4, PSMA Fab (006 PSMA Fab) (Fab biotinylated for capture on neutravidin plates (site not stated)).
T4 construct: also called Anti-PSMA Fab; anti-PSMA Fab
The experiment in a line: phage ELISA: clonal phage supernatant on biotinylated PSMA Fab captured on neutravidin plate, blocking buffer alone, anti-M13-HRP detection.

In assay [8] the target is T4, PSMA Fab (006 PSMA Fab). Put plainly: phage ELISA: clonal phage supernatant on biotinylated PSMA Fab captured on neutravidin plate, wells pre-incubated with PSMA antigen as competitor, anti-M13-HRP detection.
Description: as §1

Where no end group is shown, it is not given here.

MERMCRPAWMCTAF [Phage-3097]: the “Phage binding ELISA signal, Anti-PSMA Fab” value in assay [1] was found to be 2.09. For the same molecule, the “Phage binding ELISA signal, Anti-PSMA Fab in the presence of PSMA antigen” value (from here on “Phage binding ELISA signal … of PSMA antigen”) in assay [2] amounted to 0.107.

B1: Phage-3130 (peptide)
peptide: SVGYCVPSWMCSGF
modifications: cysteine pairing not given here; also: fused to phage pIII, orientation and linker not given here
B1: the “Phage binding ELISA signal, Anti-PSMA Fab” value in assay [3] was determined as 2.06. The “Phage binding ELISA signal, Anti-PSMA Fab in presence of PSMA” value in assay [4] worked out at 0.075.

With DYHYCEPAWMCFGF [Phage-3119], in assay [5], the “phage binding ELISA signal” value was 2.07. The “phage binding ELISA signal with PSMA antigen present” value in assay [6] was 0.0726.

B2: Phage-3125 (peptide)
peptide: VNVKCVPSWMCSGF
modifications: cysteine pairing not given here; also: fused to phage pIII, orientation and linker not given here
On to B2, for which the “phage binding ELISA signal” value in assay [5] came to 2.07. For the same molecule, the “phage binding ELISA signal with PSMA antigen present” value in assay [6] came out at 0.0739.

B3: Phage-3127 (peptide)
peptide: LDKRCVPVWMCEGF
modifications: cysteine pairing not given here; also: fused to phage pIII, orientation and linker not given here
B3: in assay [5], the “phage binding ELISA signal” value was found to be 2.06. Moreover, in assay [6], the “phage binding ELISA signal with PSMA antigen present” value came out at 0.0828.

For the molecule VDLICRPAWMCSGF [Phage-3087 (peptide-180 library clone)], the “Phage binding ELISA signal, Anti-PSMA Fab” value in assay [7] is 2.1. In addition, the “Phage binding ELISA signal, Anti-PSMA Fab in presence of PSMA” value in assay [8] came to 0.0726.

Take PMPVCVPMWMCYGF [Phage-3100]: the “Phage binding ELISA signal, Anti-PSMA Fab” value in assay [1] was determined as 2.09. Moreover, the “Phage binding ELISA signal … of PSMA antigen” value in assay [2] turned out to be 0.0842.

Consider EHILCRPVWMCEGF [Phage-3098], for which the “Phage binding ELISA signal, Anti-PSMA Fab” value in assay [1] came out at 2.09. In addition, the “Phage binding ELISA signal … of PSMA antigen” value in assay [2] came to 0.101.

B4: Phage-3126 (peptide)
peptide: FEILCRPLWMCSGF
modifications: cysteine pairing not given here; also: fused to phage pIII, orientation and linker not given here
As to B4, the “phage binding ELISA signal” value in assay [5] is 2.06. Also, in assay [6], the “phage binding ELISA signal with PSMA antigen present” value stood at 0.111.

Take ILPQCVPAWMCSGF [Phage-3101]: in assay [1], the “Phage binding ELISA signal, Anti-PSMA Fab” value amounted to 2.09. In assay [2], the “Phage binding ELISA signal … of PSMA antigen” value turned out to be 0.0784.

B5: Phage-3131 (peptide)
peptide: DAVRCVPSWMCEGF
modifications: cysteine pairing not given here; also: fused to phage pIII, orientation and linker not given here
Turning to B5, the “Phage binding ELISA signal, Anti-PSMA Fab” value in assay [3] came out at 2.06. The “Phage binding ELISA signal, Anti-PSMA Fab in presence of PSMA” value in assay [4] turned out to be 0.1.

On to MGPVCKPAWMCLEF [Phage-3099], for which the “Phage binding ELISA signal, Anti-PSMA Fab” value in assay [1] amounted to 2.09. Moreover, in assay [2], the “Phage binding ELISA signal … of PSMA antigen” value came to 0.109.

With VVPRCEPMWMCQGF [Phage-3088], the “Phage binding ELISA signal, Anti-PSMA Fab” value in assay [1] is 2.1. In assay [2], the “Phage binding ELISA signal … of PSMA antigen” value is 0.0982.

With YDFRCIPSWMCMGI [Phage-3095], in assay [1], the “Phage binding ELISA signal, Anti-PSMA Fab” value is 2.1. Also, the “Phage binding ELISA signal … of PSMA antigen” value in assay [2] came to 0.0693.

On to EFPLCVPAWMCSGF [Phage-3115], for which the “phage binding ELISA signal” value in assay [5] was 2.08. Besides, the “phage binding ELISA signal with PSMA antigen present” value in assay [6] was 0.0859.

LESMCIPPWMCSGL [Phage-3118]: in assay [5], the “phage binding ELISA signal” value worked out at 2.07. The “phage binding ELISA signal with PSMA antigen present” value in assay [6] was found to be 0.109.

B6: Phage-3123 (peptide)
peptide: GYPLCIPEWMCAGF
modifications: cysteine pairing not given here; also: fused to phage pIII, orientation and linker not given here
In the case of B6, the “phage binding ELISA signal” value in assay [5] stood at 2.07. In addition, the “phage binding ELISA signal with PSMA antigen present” value in assay [6] turned out to be 0.0968.

B7: Phage-3122 (peptide)
peptide: GMIQCRPAWMCAGL
modifications: cysteine pairing not given here; also: fused to phage pIII, orientation and linker not given here
With B7, the “phage binding ELISA signal” value in assay [5] amounted to 2.07. For the same molecule, the “phage binding ELISA signal with PSMA antigen present” value in assay [6] turned out to be 0.0928.

On to TDQLCKPLWMCTGF [Phage-3089], for which, in assay [1], the “Phage binding ELISA signal, Anti-PSMA Fab” value stood at 2.1. Moreover, the “Phage binding ELISA signal … of PSMA antigen” value in assay [2] amounted to 0.0815.

B8: Phage-3129 (peptide)
peptide: GHQMCVPQWMCDAF
modifications: cysteine pairing not given here; also: fused to phage pIII, orientation and linker not given here
Consider B8, for which, in assay [3], the “Phage binding ELISA signal, Anti-PSMA Fab” value was 2.06. Also, the “Phage binding ELISA signal, Anti-PSMA Fab in presence of PSMA” value in assay [4] stood at 0.0607.

FHIMCQPEWMCLGF [Phage-3116]: the “phage binding ELISA signal” value in assay [5] was found to be 2.08. Further, the “phage binding ELISA signal with PSMA antigen present” value in assay [6] was 0.129.

For GAMVCKPAWMCQGF [Phage-3094], in assay [1], the “Phage binding ELISA signal, Anti-PSMA Fab” value came out at 2.1. Besides, in assay [2], the “Phage binding ELISA signal … of PSMA antigen” value was found to be 0.0731.

On to VEPYCKPAWMCTGF [Phage-3093], for which the “Phage binding ELISA signal, Anti-PSMA Fab” value in assay [1] came out at 2.1. For the same molecule, the “Phage binding ELISA signal … of PSMA antigen” value in assay [2] amounted to 0.11.

With NEPWCVPAWMCTGF [Phage-3120], in assay [5], the “phage binding ELISA signal” value was 2.07. The “phage binding ELISA signal with PSMA antigen present” value in assay [6] came to 0.0834.

TELACKPLWMCNGF [Phage-3091]: the “Phage binding ELISA signal, Anti-PSMA Fab” value in assay [1] is 2.1. Besides, the “Phage binding ELISA signal … of PSMA antigen” value in assay [2] stood at 0.0691.

B9: Phage-3124 (peptide)
peptide: SMHWCEPMWMCAGF
modifications: cysteine pairing not given here; also: fused to phage pIII, orientation and linker not given here
As for B9, in assay [5], the “phage binding ELISA signal” value came out at 2.07. Besides, the “phage binding ELISA signal with PSMA antigen present” value in assay [6] is 0.0809.

As for QGRVCEPSWMCTGF [Phage-3096], the “Phage binding ELISA signal, Anti-PSMA Fab” value in assay [1] amounted to 2.09. Further, the “Phage binding ELISA signal … of PSMA antigen” value in assay [2] was 0.0561.

B10: Phage-3128 (peptide)
peptide: LELACKPEWMCVGF
modifications: cysteine pairing not given here; also: fused to phage pIII, orientation and linker not given here
B10: in assay [5], the “phage binding ELISA signal” value stood at 2.06. Further, the “phage binding ELISA signal with PSMA antigen present” value in assay [6] is 0.0801.

As to VSIMCTPLWMCEGF [Phage-3090], the “Phage binding ELISA signal, Anti-PSMA Fab” value in assay [1] turned out to be 2.1. Moreover, the “Phage binding ELISA signal … of PSMA antigen” value in assay [2] is 0.0782.

For the molecule TGAICVPEWMCMGF [Phage-3092], in assay [1], the “Phage binding ELISA signal, Anti-PSMA Fab” value was determined as 2.1. Moreover, the “Phage binding ELISA signal … of PSMA antigen” value in assay [2] came out at 0.0934.

For the molecule APVFCKPAWMCPWL [Phage-3121], the “phage binding ELISA signal” value in assay [5] turned out to be 2.07. In addition, in assay [6], the “phage binding ELISA signal with PSMA antigen present” value is 0.0695.

Consider SGALCVPLWMCTGF [Phage-3117], for which, in assay [5], the “phage binding ELISA signal” value is 2.07. Moreover, in assay [6], the “phage binding ELISA signal with PSMA antigen present” value stood at 0.0979.
